Results on 4 molecules are retold here after patent US20100178296A1.

In test [1] the target is fusion protein of the extracellular domain of the human inhibitory receptor CD200R fused to the Fc portion of human IgG1 (human) (UniProt Q8TD46). The test can be described thus: SPR (BIAcore 3000), fusion protein captured by anti-human Fc, antibody at 133 and 13.3 nM, bivalent analyte model.
Test [2] has the same target. The test can be described thus: KinExA, human CD200R-Ig in solution and on the particles.
The target in test [3] is human CD200R, full length, expressed on murine mast cells (DT762) (human) (UniProt Q8TD46).
Sequence of human CD200R, full length, expressed on murine mast cells (DT762) (human) (Q8TD46 other isoform, or with tags, fused parts or gaps limits assumed, form in doubt): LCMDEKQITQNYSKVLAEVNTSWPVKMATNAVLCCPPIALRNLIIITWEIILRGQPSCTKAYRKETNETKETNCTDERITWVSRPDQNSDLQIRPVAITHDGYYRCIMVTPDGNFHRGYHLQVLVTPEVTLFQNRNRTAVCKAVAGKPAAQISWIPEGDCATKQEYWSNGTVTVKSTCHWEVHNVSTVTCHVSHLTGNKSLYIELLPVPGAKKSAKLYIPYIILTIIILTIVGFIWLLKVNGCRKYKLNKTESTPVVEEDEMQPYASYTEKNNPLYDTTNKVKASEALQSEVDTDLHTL
Test [4] has as its target fusion protein of the extracellular domain of the human inhibitory receptor CD200R fused to the Fc portion of human IgG1 (human) (UniProt Q8TD46). The test can be described thus: SPR (BIAcore 3000), fusion protein captured by anti-human Fc, antibody 0.82 to 600 nM, bivalent analyte model. In general terms: Surface plasmon resonance follows binding to a sensor surface in real time, without labels.

Sequence of fusion protein of the extracellular domain of the human inhibitory receptor CD200R fused to the Fc portion of human IgG1 (human) (Q8TD46 other isoform, or with tags, fused parts or gaps limits assumed, form in doubt): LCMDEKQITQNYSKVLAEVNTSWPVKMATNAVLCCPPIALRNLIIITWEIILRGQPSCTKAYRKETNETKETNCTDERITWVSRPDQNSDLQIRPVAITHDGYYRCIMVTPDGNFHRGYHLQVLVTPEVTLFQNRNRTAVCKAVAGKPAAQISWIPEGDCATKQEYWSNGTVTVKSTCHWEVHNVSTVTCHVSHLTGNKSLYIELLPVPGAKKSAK

B1: DX178, rat anti-human inhibitory CD200R monoclonal antibody (antibody, V domains shown)
VH: EIQLQESGPGLVKPSQSLSLTCSVTGFTITSGYDWSWIRKFPGNKMEWMGYIGFSGSTVYNPSLNSRISITRDTAKNQFFLQLNSVTTEDTATYHCAKSFVQNTFIYDWFFDFWGPGTMVTVSS
VL: DVRMTQSPSNLAASPGESVSINCKASKNISKYLAWYQQKPGKANRLLICSGSTLQSGTPSRFSGSGFGTDFTLTIRNLEPEDFGLYYCQQHNEFPLTFGSGTKLEIKR
Regarding B1, the Kd in test [1] came out at 1.62 nM; in test [2], 0.628 nM.

B2: DX182, rat anti-human inhibitory CD200R monoclonal antibody (antibody, V domains shown)
VL: EVQMTQSPSTLTASPGESVSINCKASKNIRSYLAWYQQKPGKPNKLLIYSGSTLHSGTPSRFSGSGFGTDFTLTIRNLEPEDFGLYYCQQHHEYPLTFGSGTKLEIKR
VH: EIQLQESGPGLVKPSQSLSLTCSVTGYTITSGYDWSWIRKFPGNKMEWMGYINYGGSTNYKPSLGSRISITRDTSKNQFFLQLNSVSPEDTATYYCAKYNEYKSYIYDWYFDFWGPGTMVTVSS
On to B2, for which the Kd in test [1] is 0.024 nM; in test [4] it was 0.76 nM; in test [2], 0.056 nM. For the same molecule, in test [3], the IC50 (read off the curve) turned out to be 0.2 µg/mL.

B3: DX185, rat anti-human inhibitory CD200R monoclonal antibody (antibody, V domains shown)
VH: EIQLQESGPGLVKPSQSFSLTCSVTGYTITSGYDWSWIRKFPGNRMEWMGYINYSGSTVYNPSLRSRFSITRDTSKNQFFLQLNSVASEDTATYYCAKFEASNTYLYDWYFDFWGPGTMVTVSS
VL: DVQMTQSPSYLAASPGESVSISCKAGKNINTNLAWYQAKPGKTNKVLIHSGSTLQSGTPSRFSGSGFGTDFTLTIRSLEPEDFAVYYCQQHNEFPLTFGSGTKLEIKR
On to B3, for which the Kd worked out at 0.202 nM in test [1] and 0.126 nM in test [2].

B4: DX184, rat anti-human inhibitory CD200R monoclonal antibody (antibody, V domains shown)
VL: DIVMTQSPTFMSISVGDRVTMSCKASQNVGSNVDWYQQKTGQSPKLLIYKASNRYTGVPDRFTGSGSGTGFTFTITNLQAEDLAVYYCMQSLSFPYTSGAGT
VH: QVQLKESGPGLVQPSQTLSLTCTVSGFSLTNNGVSWVRQPPGKGLEWIAAISSGGGTFYNSALKSRLSISRDTSKSQVFLKMNSLQTEDTAIYFCARDGDWDWYFDFWGPGTMVTVSS
Turning to B4, the values for the Kd in test [1] and in test [2] were 1.93 nM and 0.026 nM, respectively.
